The data set deals with MS2 coat protein. Description: apparent KD of MS2 coat protein; designed switch direction (-1 OFF switch, 1 ON switch): -1; higher = weaker reporter binding. In outline:
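Three titration conditions were used: no input, 200 uM small-molecule ligand, and an oligonucleotide input. In each, SNAP-549-labelled MS2 coat protein was raised from 0.7 or 1.5 nM, doubling, to 3 µM over designed RNA switches transcribed on Illumina chips by stalled E. coli RNA polymerase. Curve fits of normalised cluster fluorescence gave values whose per-design median over clusters is the apparent KD.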

[1] abbreviates: Eterna round: R95, input ligand: FMN 200 uM.
[2] abbreviates: Eterna round: R95, input ligand: microRNA oligo, concentration not stated.
The mark [3] stands for this setting: Eterna round: R95, input ligand: none.
[4] abbreviates: input ligand: microRNA oligo, concentration not stated.

As for “AGUUAAGCAGGAUAUAUCCGGGAUAACAUGAGGAUCACCCAUGUGACCGCUUGAUAUCCUAUAGAAGGGCUUAAGA [Mod of ViennaUCT 25 - Jieux - Exclusion 5] (Eterna round: R97, puzzle: Exclusion 5)”, the “apparent KD of MS2 coat protein” value (input ligand: FMN 200 uM) is 68.2 nM and the “apparent KD of MS2 coat protein” value (input ligand: none) was determined as 27.4 nM.
Turning to “AGUUACUACAAGCUUUGGGACAUGAGGAUCACCCAUGUUCGUCUUAUUGUAGUAGGUACGCUGACGUACCUACUACU [Mat - Sensor v3 - turn-off var 1 - JL Mod - D6] (puzzle: Sensor v3, turn-off variant 1)”, the “apparent KD of MS2 coat protein” value under setting [1] came to 15.9 nM, the “apparent KD of MS2 coat protein” value under setting [2] came out at 42.8 nM and the “apparent KD of MS2 coat protein” value under setting [3] came to 14.5 nM.
Take “AGUUCUAACACGUUGGUGUUAGUACCAUAAGCUUGUGAUACAUGAGGAUCACCCAUGUCCUCAUAAGCUCGUCUUAU [salish99_TOv2_r3_1001] (Eterna round: R96, puzzle: Sensor v3, turn-off variant 2)”: the “apparent KD of MS2 coat protein” value by setting is: (input ligand: FMN 200 uM) 25.2 nM; under setting [4], 563 nM; (input ligand: none) 27.3 nM.
In the case of “AGUUCUAACACGUUGGUGUUAGUACCAUAAGCUUGUGAUACAUGAGGAUCACCCAUGUCCUCAUAAGCUCGUCUUAU [salish99_TOv2_r3_1001] (puzzle: Sensor v3, turn-off variant 2)”, the “apparent KD of MS2 coat protein” value is 26.8 nM under setting [1], 400 nM under setting [2] and 21.9 nM under setting [3].
For “AGUUGGCGAGGAUAUACAUGAGGAUCACCCAUGUGAAAUUAAAGUGAGUAAAUGAAAAGUAGAAGGCGCUGACA [Mod of Mat 21 - Jieux - Exclusion 3] (Eterna round: R97, puzzle: Exclusion 3)”, the “apparent KD of MS2 coat protein” value is 259 nM (input ligand: FMN 200 uM) and 40.3 nM (input ligand: none).
Take “AGUUGGCGAGGAUAUACAUGAGGAUCACCCAUGUGAAUAAGAAUAGUGAGGAAGAAAAGUAGAAGGCGCUGACA [Mat - Exclusion 3 - Mod of Salish D36] (puzzle: Exclusion 3)”: the “apparent KD of MS2 coat protein” value by setting is: under setting [1], 237 nM; under setting [2], 39.8 nM; under setting [3], 44.5 nM.
As for “AGUUGGCGAGGAUAUACAUGAGGAUCACCCAUGUGAGAGAAAAAAGUGAGGAAGAAAAGUAGAAGGCGCUGACA [salish99_ex3_r3_038] (puzzle: Exclusion 3)”, the “apparent KD of MS2 coat protein” value under setting [1] is 318 nM, the “apparent KD of MS2 coat protein” value under setting [2] turned out to be 48.3 nM and the “apparent KD of MS2 coat protein” value under setting [3] was determined as 77.3 nM.
Regarding “AGUUGGCGAGGAUAUACAUGAGGAUCACCCAUGUGAGAGAAUAAAGUGAGGAAGAAAAGUAGAAGGCGCUGACA [Mat - Exclusion 3 - Mod of Salish D9] (puzzle: Exclusion 3)”, the “apparent KD of MS2 coat protein” value under setting [2] is 47.7 nM.
As for “AUAAAAGAAGUUAGGAUAUGGAAUCGUGGCAACGACCAGAAGGAACUUGAGGAUCACCCAAGUGAUUCUGAUCG [Atzaace] (Eterna round: R97, puzzle: Brourd's mod of Exclusion 4)”, the “apparent KD of MS2 coat protein” value is 15.2 nM (input ligand: FMN 200 uM) and 14.1 nM (input ligand: none).
Consider “AUAAAUAAUGCAGGAUAUGUCGGCGAAAGGCCGGCAGAAGGGCAGCGUGGAUGUAUCCUGAACAUGAGGAUCACCCAUGUGAAA [Ederisbi] (Eterna round: R96, puzzle: Exclusion NG 1)”, for which the “apparent KD of MS2 coat protein” value (input ligand: FMN 200 uM) worked out at 209 nM, the “apparent KD of MS2 coat protein” value under setting [4] was found to be 168 nM and the “apparent KD of MS2 coat protein” value (input ligand: none) was 347 nM.
For the sequence “AUAAAUCAUGUAGGAUAUGCGUAGCGAAGCUAUGCAGAAGGACAUGAGGAUCACCCAUGUCUUUCCGUCUGCGUACAGACGGAA [Mat - Exclusion NG 1 - Mod of JL - D42] (Eterna round: R96, puzzle: Exclusion NG 1)”, the “apparent KD of MS2 coat protein” value by setting is: (input ligand: FMN 200 uM) 149 nM; under setting [4], 20.1 nM; (input ligand: none) 24.1 nM.
Take “AUAAAUCAUGUAGGAUAUGCGUGGAGAAGCUAUGCAGAAGGACAUGAGGAUCACCCAUGUGCUUCCGUCUGCGUACAGACGGAA [Mat - Exclusion NG 1 - Mod of JL - D36] (Eterna round: R96, puzzle: Exclusion NG 1)”: the “apparent KD of MS2 coat protein” value runs as follows: (input ligand: FMN 200 uM) 38 nM; under setting [4], 89.2 nM; (input ligand: none) 131 nM.
The corresponding values for “AUAAAUCAUGUAGGAUAUGCGUGGCAAAGCUAUGCAGAAGGACAUGAGGAUCACCCAUGUGCUUCCGUCUGGGAACAGACGGUA [Mat - Exclusion NG 1 - Mod of JL - D34] (Eterna round: R96, puzzle: Exclusion NG 1)” are 243 nM, 67.7 nM and 84.9 nM.
Turning to “AUAAGUAUAUAGGAUAUCUAGCUGGAAACAGCUAGAGAAGGAUGUACAUGAGGAUCACCCAUGUAAAUCUCAAU [Ex6/12-A3] (Eterna round: R97, puzzle: Exclusion 6)”, the “apparent KD of MS2 coat protein” value reads like this: (input ligand: FMN 200 uM) 16.3 nM; (input ligand: none) 14.1 nM.
As for “AUAAGUAUAUAGGAUAUCUAGCUGGAUACAGCUAGAGAAGGAUGUACAUGAGGAUCACCCAUGUAAAUCUCAAU [Ex6/12-A1] (Eterna round: R97, puzzle: Exclusion 6)”, the “apparent KD of MS2 coat protein” value runs as follows: (input ligand: FMN 200 uM) 18.7 nM; (input ligand: none) 15.1 nM.
In the case of “AUAAGUGAUAAGGAUAUUACUAGCUGCGGCUAGUGAGAAGGUAUCACAUGAGGAUCACCCAUGUGUUCCAAUAA [Ex6/7-B3] (Eterna round: R97, puzzle: Exclusion 6)”, the “apparent KD of MS2 coat protein” value (input ligand: FMN 200 uM) was 254 nM and the “apparent KD of MS2 coat protein” value (input ligand: none) worked out at 134 nM.
In the case of “AUAAUAUAUGUAGGAUAUCUGCACGAUUAGUGCAGAGAAGGACAUGAGGAUCACCCAUGUAAUUAAGAUCAAUUAUUAAAUUAU [ENG1/4-B1] (Eterna round: R96, puzzle: Exclusion NG 1)”, the “apparent KD of MS2 coat protein” value runs as follows: (input ligand: FMN 200 uM) 84.3 nM; under setting [4], 24.6 nM; (input ligand: none) 35.4 nM.
“AUAAUGUAAGGAUAUCAGUCGACUAGCCUCGGCUAGUCGACUGAGAAGGUACAUGAGGAUCACCCAUGUGAUUA [E4/10-A2] (Eterna round: R97, puzzle: Exclusion 4)”: the “apparent KD of MS2 coat protein” value is, setting by setting: (input ligand: FMN 200 uM) 762 nM; (input ligand: none) 191 nM.
On to “AUAAUGUAAGGAUAUCAGUCGUACAGCCUCGGCUGUACGACUGAGAAGGUACAUGAGGAUCACCCAUGUGAUCA [E4/8-A2] (Eterna round: R97, puzzle: Exclusion 4)”, for which the “apparent KD of MS2 coat protein” value by setting is: (input ligand: FMN 200 uM) 98.4 nM; (input ligand: none) 1200 nM.
Consider “AUAAUGUAAGGAUAUCAGUCGUACAGCUUCGGCUGUACGACUGAGAAGGUACAUGAGGAUCACCCAUGUGGUCA [E4/9-A1] (Eterna round: R97, puzzle: Exclusion 4)”, for which the “apparent KD of MS2 coat protein” value by setting is: (input ligand: FMN 200 uM) 52.2 nM; (input ligand: none) 886 nM.
For “AUAAUGUCAGGAUAUACUAAUGAUGAAUGAUUAGACAUUAUGUAGAAGGGACAUGAGGAUCACCCAUGUAAUAU [EX4 #2] (Eterna round: R97, puzzle: Exclusion 4)”, in that order: 39.9 nM and 26.8 nM.
The corresponding values for “AUAAUGUCAGGAUAUCAGUCGACUAGCUGCGGCUAGUCGACUGAGAAGGGACAUGAGGAUCACCCAUGUGUUUC [E4/14-A3] (Eterna round: R97, puzzle: Exclusion 4)” are 475 nM and 367 nM.
On to “AUAAUGUGAGGAUAUCAGUCGACUAGCGAUAGCUAGUCGACUGAGAAGGCACAUGAGGAUCACCCAUGUGUUUC [E4/15-A4] (Eterna round: R97, puzzle: Exclusion 4)”, for which the “apparent KD of MS2 coat protein” value runs as follows: (input ligand: FMN 200 uM) 44.4 nM; (input ligand: none) 16.8 nM.
Turning to “AUAAUGUGAGGAUAUCAGUCGACUAGCUGCGGCUAGUCGACUGAGAAGGUACAUGAGGAUCACCCAUGUGGUUC [E4/11-B3] (Eterna round: R97, puzzle: Exclusion 4)”, the “apparent KD of MS2 coat protein” value came out at 904 nM (input ligand: FMN 200 uM) and 434 nM (input ligand: none).
Consider “AUAAUUAAUGCAGGAUAUCAGCACGUGUAGUGCUGAGAAGGGCACAUGAGGAUCACCCAUGUGAUCAAUUAAUAUUAAUAUUAU [ENG1/11-D3] (Eterna round: R96, puzzle: Exclusion NG 1)”, for which the “apparent KD of MS2 coat protein” value under setting [4] turned out to be 48.4 nM.
Consider “AUACAGGAAGGAUAUACAUGAGGAUCACCCAUGUAGGAAAACCUACCAAAAGACCCAAGUAGAAGGUCCGAUAC [jl-ex3-4.74 ViennaUCT mod] (Eterna round: R97, puzzle: Exclusion 3)”, for which the “apparent KD of MS2 coat protein” value by setting is: (input ligand: FMN 200 uM) 21.8 nM; (input ligand: none) 19.4 nM.
As for “AUACCACGAGGAUAUCGUCUAUUUCACAUGAGGAUCACCCAUGUUAUCUUUGUUUCGUUUCGAGAAGGCGUGUUUU [JR_E5_Sub077] (puzzle: Exclusion 5)”, the “apparent KD of MS2 coat protein” value under setting [2] is 30.1 nM.
For “AUACCACGAGGAUAUCGUCUAUUUUACAUGAGGAUCACCCAUGUUAUCUUUGUAAUGUUUCGAGAAGGCGUGUUUU [JR_E5_Sub080] (puzzle: Exclusion 5)”, the “apparent KD of MS2 coat protein” value under setting [2] amounted to 31.7 nM.
As for “AUACCACGAGGAUAUCGUCUAUUUUACAUGAGGAUCACCCAUGUUAUCUUUGUUUUGUUUCGAGAAGGCGUGUUUU [JR_E5_Sub079] (puzzle: Exclusion 5)”, under setting [2], the “apparent KD of MS2 coat protein” value was 24.6 nM.
Consider “AUAGAGUCAGGAUAUACAGGUGGAGGAGAGCAGCAUAAGGAGUAGAAGGGACAUGAGGAUCACCCAUGUAAGUG [JR_Exclu4_Sub059] (puzzle: Exclusion 4)”, for which the “apparent KD of MS2 coat protein” value under setting [1] was 45.9 nM, the “apparent KD of MS2 coat protein” value under setting [2] came out at 63.9 nM and the “apparent KD of MS2 coat protein” value under setting [3] turned out to be 56.9 nM.
As to “AUAGAGUUAGGAUAUGAGAGGCCGAACAUGAGGAUCACCCAUGUUCCGCGUGUUGCUCCCUUAGAAGGAACGAAUA [EX5 B.3] (Eterna round: R97, puzzle: Exclusion 5)”, the “apparent KD of MS2 coat protein” value reads like this: (input ligand: FMN 200 uM) 14.7 nM; (input ligand: none) 22 nM.
